This assay concerns the target PP1α_(7-330), His6-tag removed by TEV protease, P62136. Kind of assay: SEC. (SEC sorts molecules by how far they enter the pores of the column.)

For orientation: stoichiometry N means the number of molecules, sites or subunits per partner or assembly.

Sequence of PP1α_(7-330), His6-tag removed by TEV protease, P62136 (P62136 7-330): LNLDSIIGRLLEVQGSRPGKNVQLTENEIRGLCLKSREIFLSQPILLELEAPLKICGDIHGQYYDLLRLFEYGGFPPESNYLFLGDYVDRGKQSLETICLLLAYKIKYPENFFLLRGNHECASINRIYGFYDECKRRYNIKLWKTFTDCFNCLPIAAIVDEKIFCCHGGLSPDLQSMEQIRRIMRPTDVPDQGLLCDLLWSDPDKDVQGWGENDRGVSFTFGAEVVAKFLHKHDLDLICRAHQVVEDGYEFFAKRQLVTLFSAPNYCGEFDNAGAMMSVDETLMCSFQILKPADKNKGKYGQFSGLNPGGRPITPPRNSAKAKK

B1: I-2_(9-164) C85S (domain or fragment)
chain: PIKGILKNKTSTTSSMVASAEQPRGNVDEELSKKSQKWDEMNILATYHPADKDYGLMKIDEPSTPYHSMMGDDEDASSDTEATEAMAPDILARKLAAAEGLEPKYRIQEQESSGEEDSDLSPEEREKKRQFEMKRKLHYNEGLNIKLARQLISKDL
modifications: not checked
B1 showed a stoichiometry N of 1.

For the origin of these results see publication PMC3040262.
